{"source": "paper PMC3795957", "about": "(Nature biotechnology, 2013)", "biological_target": "T1, wild-type (WT Asp) peptide GEKKGNYVVTDH (also: biotin (site not given here))", "T1 chain": "GEKKGNYVVTDH", "test": "SPR", "note": "Where no end group is shown, it is not given here.", "data": [{"binder": "humanized version of the 1i8i Fab (Parent) (Fab, V domains shown) VH: EVQLVESGGGLVQPGGSLRLSCVTSGFTFRKFGMSWVRQAPGKGLEWVASISTGGYNTYYSDSVKGRFTISRDNSKNTLYLQMNSLRAEDTAVYYCTRGYSSTSYAMDYWGQGTLVTVSS VL: DIVLTQSPATLSLSPGERATLSCMTSTDIDDDMNWYQQKPGQAPRLLISEGNTLRPGVPARFSGSGSGTDFTLTISSLEPEDFAVYYCLQSFNVPLTFGQGTKVEIK", "values": [{"measurement": "kon", "result": 338000, "unit": "M⁻¹ s⁻¹"}]}]}
